Results as given in patent publication US8652467B2, “Dek protein compositions and methods of using the same” (The Regents of the University of Michigan, priority 2005, dated 2014).
Entries after “also recorded” stand apart in the source; their conditions may differ.

What was measured:
[1] = system: Human Microvascular Endothelial Cells (HMVEC); assay: HMVEC chemotaxis (cell migration assay); type: cell-based; conditions: 3.5 μg purified recombinant DEK vs purification buffer control
Protocol: Cell migration assay (See, e.g., Koch et al., Arthritis & Rheumatism 44: 31-40, (2001)) was performed with either 3.5 μg of purified, recombinant DEK diluted in PBS, or with just the purification buffer diluted in PBS (control). Nine high-power fields were assayed per sample, and results expressed as the number of cells migrating per well. Error bars show the mean deviation of two separate experiments (*p=0.0249).

neutrophils = assay: Neutrophil migration into the peritoneum after intraperitoneal injection; type: in vivo, C57BL6 mice; conditions: 50 μg intraperitoneal, 8 h following injection, vs GLI-2 and PBS controls
Protocol: (A). Purified neutrophils were placed in the upper chambers of a 24-well chemotaxis microchamber plate with pore size of 3 μM or 5 μM. Lower chambers contained RPMI medium with various concentrations of recombinant DEK, as indicated. The bar labeled “control” contained only media in the lower chamber. The bar labeled “DEK up” had DEK in the upper chamber and media in the lower chamber. […] (B). Groups of mice received intraperitoneal injections of either PBS or 50 μg of either LPS, recombinant DEK, or a recombinant protein control prepared in parallel to DEK in baculovirus (an isoform of human GLI-2). Twenty mice were tested in each of the four groups. Half of the mice in each group were sacrificed after 4 hours (white bars), and the other half at 8 hours (black bars) after intraperitoneal injection, and then subjected to peritoneal lavage. The bars represent the average number of neutrophils migrating into the peritoneum of each group of mice.
In order to confirm that DEK is a chemoattractant, an in vivo murine model was used. Four groups of twenty 4-6 week old male C57BL6 mice were injected intraperitoneally with 50 μg of DEK, 50 μg of a recombinant control protein also prepared in baculovirus (GLI-2) (See, e.g., Smith et al., J Virol 75, 2301-13 (2001)), 50 μg of LPS, or PBS alone.

circular SV-40 DNA = assay: Topology assay with His-DEK and GST-ALY; type: biochemical; conditions: in the presence of 1 U topoisomerase I
Protocol: 10 ng (0.003 pmol) of circular SV-40 DNA was incubated with 2, 4 or 8 pmol of HIS-DEK (DEK) or GST-ALY (ALY) or either 2 or 4 pmol HIS-DEK and 2, 4 or 8 pmol GST-ALY in the presence of 1 U topoisomerase I. As a control for the functionality of topoisomerase I, SV-40 DNA was incubated either with or without topo I in the absence of GST-ALY and DEK. After 1 h at 37° C., the samples were treated with Proteinase K, and the DNA was purified and analyzed by agarose gel electrophoresis (0.8% at 2V/cm) and SybrGold staining.

[2] = system: monocyte-depleted peripheral white blood cells; assay: In vitro migration assay with monocyte-depleted peripheral white blood cells; type: cell-based, human
Protocol: (A). […] Day 12 MDM grown in 10% serum were maintained for 12 h in serum-free conditioned media alone or with 10 ng/ml of recombinant IL-8. Supernatants were harvested, and secreted DEK detected in the supernatant by Western blot using DEK-specific monoclonal antibody. (B). DEK is a chemoattractant. Monocyte-depleted peripheral white blood cells were prepared. 1×10^5 cells in 100 μl RPMI were placed in the upper chambers of a 24-well chemotaxis microchamber plate with pore size of 3 μM. Lower chambers contained RPMI medium with various concentrations of recombinant DEK (made in baculovirus), recombinant GLI-2 control protein (also made in baculovirus), or no protein control (C′). After 1 h, the number of fluorescently labeled migrating cells in the lower chamber was determined at 485 nM/535 nm wavelengths by Tecan GENios (Phenix, Austria). The results are expressed as the average fold increase of the number of cells migrating toward DEK or GLI-2 compared to control wells containing medium only. Data shown using 34 nM and 68 nM DEK are the average of three different donors, while data using 136 nM DEK are the average of six different donors. […] (C). […] Fluorescence profiles were recorded by FACS analysis. The results are expressed as the average fold increase of the percentage of cells migrating toward DEK vs. control wells containing medium only. […]

MDM and HeLa cells = assay: Uptake of recombinant DEK by cells; type: cell-based, human; conditions: MDM (12-day) and HeLa cells

B1: DEK: full-length recombinant DEK protein produced in baculovirus (protein, UniProt P35659 1-375, looked up)
chain: MSASAPAAEGEGTPTQPASEKEPEMPGPREESEEEEDEDDEEEEEEEKEKSLIVEGKREKKKVERLTMQVSSLQREPFTIAQGKGQKLCEIERIHFFLSKKKTDELRNLHKLLYNRPGTVSSLKKNVGQFSGFPFEKGSVQYKKKEEMLKKFRNAMLKSICEVLDLERSGVNSELVKRILNFLMHPKPSGKPLPKSKKTCSKGSKKERNSSGMARKAKRTKCPEILSDESSSDEDEKKNKEESSDDEDKESEEEPPKKTAKREKPKQKATSKSKKSVKSANVKKADSSTTKKNQNSSKKESESEDSSDDEPLIKKLKKPPTDEELKETIKKLLASANLEEVTMKQICKKVYENYPTYDLTERKDFIKTTVKELIS
modifications: full-length
notes: full-length recombinant DEK protein produced in baculovirus
[1]
  endothelial cell chemotaxis: does attract endothelial cells
neutrophils
  neutrophil migration into the peritoneum: significantly increased the infiltration of neutrophils; also recorded: significantly induces neutrophil migration
Circular SV-40 DNA
  induction of DNA supercoiling: induced supercoiling
[2]; 79 nM DEK, 1 hour, FACS analysis, vs medium only
  migration of CD8+ cells and CD56+ cells towards DEK: statistically significant
[2]; 34, 68, 136 nM DEK in lower chamber, 1 h, vs GLI-2 control protein or media alone
  migration of white blood cells toward DEK: statistically significant; also recorded: increase in a dose-dependent fashion
MDM and HeLa cells
  uptake by cells: can be taken up
